Here are results for one molecule from patent publication US6716813B2, “Use of antimicrobial proteins and peptides for the treatment of otitis media and paranasal sinusitis” (priority 2000, dated 2004).

One assay relates to NTHi strain12. The assay is classed as cell-based, nontypeable Haemophilus influenzae. The settings on record: 100 mM NaCl in gel. Here is the method: (§1) The bacteria used in the following examples were cultured as follows: Stocks of NTHi12 and M. catarrhalis […] (generous gift of Dr. Xin-Xing Gu) were maintained at -80° C. For experiments, the bacteria were plated on chocolate agar and incubated overnight at 37° C. in 5% CO2. A single colony was then picked and transferred to 10 ml of brain heart infusion (BHI, Becton Dickinson, Cockeysville, Md.), supplemented with hemin (10 μg/ml, Sigma, St. Louis, Mo.) and NAD (10 μg/ml, Sigma, St. Louis, Mo.), and allowed to grow overnight. In the morning, 1/10 volume of the overnight culture was transferred to fresh medium and incubated for 3-hours. The subculture was then washed twice with 10 mM sodium phosphate and the O.D. at 620 nm was determined. For the S. pneumoniae serotypes 3 and 6B (generous gift of Dr. Xin-Xing Gu), a 50 μl aliquot of the -80° C. stock was thawed on ice, added to 10 ml of Todd-Hewitt broth (THB, Becton Dickinson, Cockeysville, Md.) and cultured overnight. […] The subculture was then washed twice with 10 mM sodium phosphate and the O.D. at 620 nm was determined. […] The diameter of the zones of inhibition produced by each of the antimicrobial molecules against the OM pathogens (NTHi, M. catarrhalis and S. pneumoniae) was then measured in three separate experiments and the average and standard deviation were calculated. […]

The subject of assay [1] is S. pneumoniae serotype 6B. The class given is cell-based, Streptococcus pneumoniae. The method, then:
(§2) The bacteria used in the following examples were cultured as follows: Stocks of NTHi12 and M. catarrhalis […] (generous gift of Dr. Xin-Xing Gu) were maintained at -80° C. For experiments, the bacteria were plated on chocolate agar and incubated overnight at 37° C. in 5% CO2. A single colony was then picked and transferred to 10 ml of brain heart infusion (BHI, Becton Dickinson, Cockeysville, Md.), supplemented with hemin (10 μg/ml, Sigma, St. Louis, Mo.) and NAD (10 μg/ml, Sigma, St. Louis, Mo.), and allowed to grow overnight. In the morning, 1/10 volume of the overnight culture was transferred to fresh medium and incubated for 3-hours. The subculture was then washed twice with 10 mM sodium phosphate and the O.D. at 620 nm was determined. For the S. pneumoniae serotypes 3 and 6B (generous gift of Dr. Xin-Xing Gu), a 50 μl aliquot of the -80° C. stock was thawed on ice, added to 10 ml of Todd-Hewitt broth (THB, Becton Dickinson, Cockeysville, Md.) and cultured overnight. One tenth of the volume of the overnight culture was then transferred to fresh medium and incubated for 3-hours. The subculture was then washed twice with 10 mM sodium phosphate and the O.D. at 620 nm was determined. The radial assay method of […] and coworkers was used, with minor modifications ([…] et al., 1991). The subcultured bacteria (4×10^6 CFU/10 ml underlay gel) were mixed with melted underlay gel at 42° C. (0.1×culture broth-BHI for NTHi and Moraxella and THB for S. pneumoniae-10 mM sodium phosphate, 0.8% low electroendosmosis (EEO)-type agarose) and poured into 8 cm×8 cm square petri plates. The gel was allowed to solidify in the petri plates and wells were punched out with a calibrated 200 μl micropipette tip, cut off at the 50 μl mark (approximately 3 mm). The antimicrobial peptides and proteins were dissolved in 0.01% acetic acid and 4 μl was added to each well. The plates were then incubated for 3 hours at 37° C. in the 5% CO2 incubator. They were next overlaid with the overlay gel (0.5×culture broth, 10 mM sodium phosphate, 0.8% low EEO-type agarose) and covered. The plates were then allowed to incubate overnight at 37° C. in a 5% CO2. The diameter of the zones of inhibition produced by each of the antimicrobial molecules against the OM pathogens (NTHi, M. catarrhalis and S. pneumoniae) was then measured in three separate experiments and the average and standard deviation were calculated. Physiologically, salt concentrations vary depending on the site. However, typically they can be as high as 150 mM. Thus, the salt sensitivity of the antimicrobial molecules was tested. NaCl was added to the gel in Example 2 to obtain a final concentration of 100 mM.

For the next assay, the system named is S. pneumoniae serotype 3. The assay is classed as cell-based, Streptococcus pneumoniae. The method, then: as §2
Assay [2] has as its system M. catarrhalis strain 035E. The class given is cell-based, Moraxella catarrhalis. The settings on record: 100 mM NaCl in gel. The method, then: as §1

B1: lactoferrin (protein, UniProt P02788 20-710, looked up)
Lactotransferrin: GRRRSVQWCAVSQPEATKCFQWQRNMRKVRGPPVSCIKRDSPIQCIQAIAENRADAVTLDGGFIYEAGLAPYKLRPVAAEVYGTERQPRTHYYAVAVVKKGGSFQLNELQGLKSCHTGLRRTAGWNVPIGTLRPFLNWTGPPEPIEAAVARFFSASCVPGADKGQFPNLCRLCAGTGENKCAFSSQEPYFSYSGAFKCLRDGAGDVAFIRESTVFEDLSDEAERDEYELLCPDNTRKPVDKFKDCHLARVPSHAVVARSVNGKEDAIWNLLRQAQEKFGKDKSPKFQLFGSPSGQKDLLFKDSAIGFSRVPPRIDSGLYLGSGYFTAIQNLRKSEEEVAARRARVVWCAVGEQELRKCNQWSGLSEGSVTCSSASTTEDCIALVLKGEADAMSLDGGYVYTAGKCGLVPVLAENYKSQQSSDPDPNCVDRPVEGYLAVAVVRRSDTSLTWNSVKGKKSCHTAVDRTAGWNIPMGLLFNQTGSCKFDEYFSQSCAPGSDPRSNLCALCIGDEQGENKCVPNSNERYYGYTGAFRCLAENAGDVAFVKDVTVLQNTDGNNNEAWAKDLKLADFALLCLDGKRKPVTEARSCHLAMAPNHAVVSRMDKVERLKQVLLHQQAKFGRNGSDCPDKFCLFQSETKNLLFNDNTECLARLHGKTTYEKYLGPQYVAGITNLKKCSTSPLLEACEFLRK
For the molecule B1, the “effect of salt on the growth inhibitory effect against NTHi” value in the assay with NTHi strain12 is “completely blocked”. For the same molecule, the “effect of salt on the growth inhibitory effect against S. pneumoniae serotype 6B” value in assay [1] (100 mM NaCl in gel) is listed as “completely blocked”. The “effect on growth of S. pneumoniae serotype 6B” value in assay [1] (10 and 40 μg, equivalent to 2.5 and 10 mg/ml) is recorded as “enhancement of the growth”. The “effect on growth of S. pneumoniae serotype 3” value in the assay on S. pneumoniae serotype 3 (10 μg, equivalent to 2.5 mg/ml) is on record as “enhancement of the growth”. Moreover, the “effect of salt on the growth inhibitory effect against S. pneumoniae serotype 3” value in the assay on S. pneumoniae serotype 3 (100 mM NaCl in gel) is listed as “completely blocked”. The “effect of salt on the growth inhibitory effect against M. catarrhalis” value in assay [2] is “completely blocked”.
